Several values for one entry are separate records, joined by “and”; a condition that tells them apart may be missing. Equal entries are not always repeated. Values belong to the binder of their own block, whether it stands above or below them.
Legend:
IGF1R = biological target: T1, IGF1R (UniProt P08069 31-932, limits assumed, biotinylated); assay: direct bind ELISA, ref Ab
T1 construct: ELISA antigen

PLGF [1] = biological target: T2, PLGF (UniProt P49763-2 21-149, limits assumed, biotinylated); assay: direct bind ELISA, ref Ab
T2 construct: ELISA antigen; also called P1GF
T2 sequence (looked up): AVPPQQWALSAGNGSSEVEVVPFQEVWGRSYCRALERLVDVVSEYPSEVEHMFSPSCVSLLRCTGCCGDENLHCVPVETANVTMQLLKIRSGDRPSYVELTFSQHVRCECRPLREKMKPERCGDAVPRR

HGF = biological target: T3, HGF (UniProt P14210 32-728, limits assumed, biotinylated); assay: direct bind ELISA, ref Ab
T3 construct: ELISA antigen

ErbB3 = biological target: T4, ErbB3 (UniProt P21860 20-643, limits assumed, biotinylated); assay: direct bind ELISA, ref Ab
T4 construct: ELISA antigen

DLL-4 = biological target: T5, DLL-4 (UniProt Q9NR61 27-524, limits assumed, biotinylated); assay: direct bind ELISA, ref Ab
T5 construct: ELISA antigen

VEGF = biological target: T6, VEGF (UniProt P15692-4 27-191, limits assumed, biotinylated); assay: direct bind ELISA, ref Ab
T6 construct: ELISA antigen

RON = RON (UniProt Q04912 25-571, biotinylated); assay: direct bind ELISA, ref Ab
EGFR = biological target: T7, EGFR (UniProt P00533 25-645, limits assumed, biotinylated); assay: direct bind ELISA, C-term VD;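 further: ELISA with antibody or DVD-Ig preparations applied to target antigen-coated plates for 1 h at room temperature, TMB colour development, absorbance read at 450 nm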
T7 construct: ELISA antigen; construct not described

PLGF [2] = biological target: T2, PLGF; assay: direct bind ELISA, N-term VD;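 further: antibody or DVD-Ig preparations bound to immobilized target antigen on ELISA plates, 1 h at room temperature, TMB detection read as absorbance at 450 nm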

B1: AB011 (antibody, V domains shown)
VH: EVQLLESGGGLVQPGGSLRLSCTASGFTFSSYAMNWVRQAPGKGLEWVSAISGSGGTTFYADSVKGRFTISRDNSRTTLYLQMNSLRAEDTAVYYCAKDLGWSDSYYYYYGMDVWGQGTTVTVSS
VL: DIQMTQFPSSLSASVGDRVTITCRASQGIRNDLGWYQQKPGKAPKRLIYAASRLHRGVPSRFSGSGSGTEFTLTISSLQPEDFATYYCLQHNSYPCSFGQGTKLEIKR
notes: parent antibody; also called IGF1R
EC50 (IGF1R): 0.24 nM and 0.26 nM

B3: AB012 (antibody, V domains shown)
VH: QVQLVESGGGLVKPGGSLRLSCAASGFTFSDYYMSWIRQAPGKGLEWVSYISSSGSTIYYADSVKGRFTISRDNAKNSLYLQMNSLRAEDTAVYYCARDEYNSGWYVLFDYWGQGTLVTVSS
VL: DIQMTQSPSSVSASVGDRVTITCRASQGISSWLAWYQQKPGKAPNLLIYEASSLQSGVPSRFGGSGSGTDFTLTISSLQPEDFATYYCQQANGFPWTFGQGTKVEIKR
notes: parent antibody; also called HGF
EC50 (HGF): 0.15 nM and 0.19 nM

B5: AB015 (antibody, V domains shown)
VH: EVQLVESGGGLVQPGGSLRLSCAASGFTFTDNWISWVRQAPGKGLEWVGYISPNSGFTYYADSVKGRFTISADTSKNTAYLQMNSLRAEDTAVYYCARDNFGGYFDYWGQGTLVTVSS
VL: DIQMTQSPSSLSASVGDRVTITCRASQDVSTAVAWYQQKPGKAPKLLIYSASFLYSGVPSRFSGSGSGTDFTLTISSLQPEDFATTYYCQQSYTGTVTFGQGTKVEIKR
notes: parent antibody; also called DLL-4
EC50 (DLL-4): 0.45 nM and 0.4 nM

B8: AB005 (antibody, V domains shown)
VH: EVQLVQSGGGLVKPGGSLRLSCAASGFTFSSYAMHWVRQAPGKGLEWVAVISYDGSNKYYADSVKGRFTISRDNSKNTLYLQMNSLRAEDTAVYYCARFSGWPNNYYYYGMDVWGQGTTVTVSS
VL: DVVMTQSPLSLPVTPGEPASISCRSSQSLLHSNGFNYVDWYLQKPGQSPHLLIYFGSYRASGVPDRFSGSGSGTDFTLKISRVEAEDVGVYYCMQALQTPPWTFGQGTKVEIRR
notes: parent antibody; also called RON
EC50 (RON): 0.19 nM and 0.24 nM

Second part, the binder after the results:

EC50 (PLGF [1]): 0.21 nM and 0.25 nM
B2: AB047 (antibody, V domains shown)
VH: QVQLQQSGAELVKPGASVKISCKASGYTFTDYYINWVKLAPGQGLEWIGWIYPGSGNTKYNEKFKGKATLTIDTSSSTAYMQLSSLTSEDTAVYFCVRDSPFFDYWGQGTLLTVSS
VL: DIVLTQSPDSLAVSLGERVTMNCKSSQSLLNSGMRKSFLAWYQQKPGQSPKLLIYWASTRESGVPDRFTGSGSGTDFTLTISSVQAEDVAVYYCKQSYHLFTFGSGTKLEIKR
notes: parent antibody; also called PLGF; P1GF (ThromboGenix)

EC50 (ErbB3): 1.4 nM and 2.03 nM
B4: AB067 (antibody, V domains shown)
VH: EVQLLESGGGLVQPGGSLRLSCAASGFTFSHYVMAWVRQAPGKGLEWVSSISSSGGWTLYADSVKGRFTISRDNSKNTLYLQMNSLRAEDTAVYYCTRGLKMATIFDYWGQGTLVTVSS
VL: QSALTQPASVSGSPGQSITISCTGTSSDVGSYNVVSWYQQHPGKAPKLIIYEVSQRPSGVSNRFSGSKSGNTASLTISGLQTEDEADYYCCSYAGSSIFVIFGGGTKVTVLG
notes: parent antibody

EC50 (VEGF): 1.68 nM and 1.57 nM
B6: AB071 (antibody, V domains shown)
VH: EVQLVESGGGLVQPGGSLRLSCAASGFTINASWIHWVRQAPGKGLEWVGAIYPYSGYTNYADSVKGRFTISADTSKNTAYLQMNSLRAEDTAVYYCARWGHSTSPWAMDYWGQGTLVTVSS
VL: DIQMTQSPSSLSASVGDRVTITCRASQVIRRSLAWYQQKPGKAPKLLIYAASNLASGVPSRFSGSGSGTDFTLTISSLQPEDFATYYCQQSNTSPLTFGQGTKVEIKR
notes: parent antibody

EC50 (ErbB3): 0.86 nM and 1.11 nM
B7: AB063 (antibody, V domains shown)
VH: EVQLVESGGGLVQPGGSLRLSCAASGFTFSIYSMNWVRQAPGKGLEWVSYISSSSSTIYYADSVKGRFTISRDNAKNSLYLQMNSLRDEDTAVYYCARDRGDFDAFDIWGQGTMVTVSS
VL: DIQMTQSPSSLSASVGDRVTITCQASQDITNYLNWYQQKPGKAPKLLIYDASNLETGVPSRFSGSGSGTDFTFTISSLQPEDIATYNCQQCENFPITFGQGTRLEIKR
notes: parent antibody

EC50 (ErbB3): 1.19 nM and 1.36 nM and 1.34 nM
B9: AB062 (antibody, V domains shown)
VH: QVQLQQWGAGLLKPSETLSLTCAVYGGSFSGYYWSWIRQPPGKGLEWIGEINHSGSTNYNPSLKSRVTISVETSKNQFSLKLSSVTAADTAVYYCARDKWTWYFDLWGRGTLVTVSS
VL: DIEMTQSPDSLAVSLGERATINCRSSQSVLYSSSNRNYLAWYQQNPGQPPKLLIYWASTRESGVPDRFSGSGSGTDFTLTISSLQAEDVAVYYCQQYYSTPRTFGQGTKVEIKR
notes: parent antibody

EC50 (EGFR): 120 nM
EC50 (PLGF [2]): 0.2 nM
B10: DVD342 (bispecific antibody)
VH: QVQLQQSGAELVKPGASVKISCKASGYTFTDYYINWVKLAPGQGLEWIGWIYPGSGNTKYNEKFKGKATLTIDTSSSTAYMQLSSLTSEDTAVYFCVRDSPFFDYWGQGTLLTVSSASTKGPQVQLQESGPGLVKPSQTLSLTCTVSGYSISSDFAWNWIRQPPGKGLEWMGYISYSGNTRYQPSLKSRITISRDTSKNQFFLKLNSVTAADTATYYCVTAGRGFPYWGQGTLVTVSS
VL: DIVLTQSPDSLAVSLGERVTMNCKSSQSLLNSGMRKSFLAWYQQKPGQSPKLLIYWASTRESGVPDRFTGSGSGTDFTLTISSVQAEDVAVYYCKQSYHLFTFGSGTKLEIKRTVAAPDIQMTQSPSSMSVSVGDRVTITCHSSQDINSNIGWLQQKPGKSFKGLIYHGTNLDDGVPSRFSGSGSGTDYTLTISSLQPEDFATYYCVQYAQFPWTFGGGTKLEIKR
notes: DVD-Ig; HC S, LC S; variable parts only

Source: patent publication US20110263827A1 (AbbVie / Abbott, published 2011)
